# Measurements as given in PMC10356863, “Architecture of the human G-protein-methylmalonyl-CoA mutase nanoassembly for B12 delivery and repair” (Nature Communications, 2023).
# Changes are numbered by the printed parent chain.
# T1: human MMUT R228Q (patient variant) (human, UniProt P22033 33-750, R228Q)
# T1 sequence: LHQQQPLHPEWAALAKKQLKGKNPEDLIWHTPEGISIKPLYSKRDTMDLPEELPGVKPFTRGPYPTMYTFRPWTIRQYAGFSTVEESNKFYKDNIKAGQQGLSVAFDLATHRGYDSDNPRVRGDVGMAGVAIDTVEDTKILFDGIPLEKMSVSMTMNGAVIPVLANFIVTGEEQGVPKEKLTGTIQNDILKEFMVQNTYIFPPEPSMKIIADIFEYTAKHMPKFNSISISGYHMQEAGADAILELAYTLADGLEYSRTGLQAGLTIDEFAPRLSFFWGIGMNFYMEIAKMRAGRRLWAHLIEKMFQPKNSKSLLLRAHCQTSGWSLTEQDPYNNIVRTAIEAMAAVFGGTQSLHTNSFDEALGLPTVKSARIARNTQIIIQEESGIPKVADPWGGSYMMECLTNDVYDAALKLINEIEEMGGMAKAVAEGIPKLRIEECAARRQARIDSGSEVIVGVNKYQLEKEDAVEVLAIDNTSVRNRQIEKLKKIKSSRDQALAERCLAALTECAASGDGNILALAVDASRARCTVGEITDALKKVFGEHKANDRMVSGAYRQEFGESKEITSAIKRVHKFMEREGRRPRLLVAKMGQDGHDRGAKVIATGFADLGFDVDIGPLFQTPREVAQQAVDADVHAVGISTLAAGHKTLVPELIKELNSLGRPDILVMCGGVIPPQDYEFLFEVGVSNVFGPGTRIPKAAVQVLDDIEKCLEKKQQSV
# T2: human MMUT R694W (patient variant) (human, UniProt P22033 33-750, R694W)
# T2 sequence: T1 sequence with Q196R, R662W
# T3: human MMUT R616C (patient variant) (human, UniProt P22033 33-750, R616C)
# T3 sequence: T1 sequence with Q196R, R584C
# B1: human MMAA (G-protein chaperone of MMUT), wild type (enzyme)
# chain: KDHTEGLSDKEQRFVDKLYTGLIQGQRACLAEAITLVESTHSRKKELAQVLLQKVLLYHREQEQSNKGKPLAFRVGLSGPPGAGKSTFIEYFGKMLTERGHKLSVLAVDPSSCTSGGSLLGDKTRMTELSRDMNAYIRPSPTRGTLGGVTRTTNEAILLCEGAGYDIILIETVGVGQSEFAVADMVDMFVLLLPPAGGDELQGIKRGIIEMADLVAVTKSDGDLIVPARRIQAEYVSALKLLRKRSQVWKPKVIRISARSGEGISEMWDKMKDFQDLMLASGELTAKRRKQQKVWMWNLIQESVLEHFRTHPTVREQIPLLEQKVLIGALSPGLAADFLLKAFKSRD
# Tests used:
# Experiment in all cases: cell-based or functional assay
# [1] = target: T1, human MMUT R228Q (patient variant)
# [2] = target: T2, human MMUT R694W (patient variant)
# [3] = target: T3, human MMUT R616C (patient variant)
binder,measurement,setting,value
B1,"GAP activation: GTPase activity of MMAA in the presence of MMUT, fold attenuation against wild-type MMUT",[1],12 fold
same,"GAP activation: GTPase activity of MMAA in the presence of MMUT, fold attenuation against wild-type MMUT",[2],12 fold
same,"GAP activation: GTPase activity of MMAA in the presence of MMUT, fold attenuation against wild-type MMUT",[3],7 fold
